In patent publication US20080095767A1 (PEPTECH, published 2008):
Each block holds one binder with its values, some of them ahead of it.

How the values were obtained:
[1] = molecular target: T1, rat MOG (myelin-oligodendrocyte glycoprotein) (rat, UniProt Q63345 28-245); test: Western blot on rat spinal cord lysate
T1 construct: mature; Endogenous protein in cleared rat spinal cord lysate, run on SDS-PAGE and blotted; It was identified only by its size
T1 sequence (looked up): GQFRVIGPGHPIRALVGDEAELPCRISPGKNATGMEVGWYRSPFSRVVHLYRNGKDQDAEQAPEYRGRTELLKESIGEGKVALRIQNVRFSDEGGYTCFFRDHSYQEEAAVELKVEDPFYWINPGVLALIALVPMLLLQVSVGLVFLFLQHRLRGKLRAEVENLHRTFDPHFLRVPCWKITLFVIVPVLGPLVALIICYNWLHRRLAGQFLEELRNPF
Protocol: The ability of AB138 to retain binding to the antigen of M26, rat MOG (myelin-oligodendrocyte glycoprotein), was investigated by Western Blot. 130 mg of rat spinal cord (IMVS, Australia) was homogenized in 1.8 ml CelLytic M Cell Lysis Reagent (SIGMA, C2978) and incubated for 30 minutes at 4° C. Further homogenization was performed by drawing the lysate through a 27 g ½ needle several times followed by centrifugation at 4° C. and 13000 g for 30 minutes. The pellet and supernatant was diluted into SDS-PAGE sample buffer (125 mM Tris-HCl pH 6.8, 5% SDS, 0.25% bromophenol blue, 25% glycerol). Along with this 200 μl CHOK1SV cells at 1×10⁶ viable cells per ml were spun down at 13000×g at 4° C. for 1 minute and resuspended in 200 μl CelLytic M Cell Lysis Reagent (SIGMA). Following centrifugation at 4° C. and 13000×g for 30 minutes the supernatant was mixed with the appropriate amount of SDS-PAGE sample buffer. All samples, along with a sample of molecular weight markers, were run on a 4-20% Novex pre-cast gel (Invitrogen, Australia) for 2 hours at 120V. Proteins were then transferred to PVDF (BioRad, Australia) using a western blot apparatus in 1×Tris-Glycine Buffer with 20% methanol (BioRad, Cat 161+-0771) at 4° C. at 250 mA for 2 hours. […] Following washing, bound antibody was detected using the ECL Western Blotting Analysis System, (Amersham Biosciences Cat: RPN2109). […]

[2] = molecular target: T2, human TNF-α (Peprotech Cat No: 300-01A) (human, UniProt P01375 77-233); test: cell-based or functional assay
T2 sequence (P01375 77-233 limits assumed): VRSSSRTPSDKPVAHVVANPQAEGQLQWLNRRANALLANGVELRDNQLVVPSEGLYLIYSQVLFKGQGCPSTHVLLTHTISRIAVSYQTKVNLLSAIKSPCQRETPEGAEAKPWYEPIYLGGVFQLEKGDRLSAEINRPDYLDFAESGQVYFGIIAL

[3] = molecular target: T2, human TNF-α (Peprotech Cat No: 300-01A); test: ELISA, TNF-α coated on the plate
Protocol: TNF-α (Peprotech Cat No: 300-01A) was diluted to 1 μg/mL in carbonate coating buffer ([…] pH 9.6). 100 μl of this solution was added to each well of a 96 well plate and incubated at 4° C. overnight in a humidified container. The plate was then washed three times with wash buffer (0.01M PBS pH 7.2, 0.05% Tween-20) and then three times with 0.01M PBS pH 7.2. The wells were then blocked by adding 200 μL blocking buffer (1% w/v BSA in 0.01M PBS pH 7.2) to each well and incubating the plate at 25° C., in a humidified container, for 1 hour. The antibody was diluted in antibody diluent (1% w/v BSA, 0.05% Tween-20 in 0.01M PBS pH 7.2) sufficient to generate a titration curve covering the ranges 6.00 μg/mL to 0.0578 ng/mL. The wells were incubated with the antibody for 1 hour at 25° C. The plate was then washed as previously described. 100 μL of Anti-IgG H+L antibody HRP conjugate (Zymed, Cat No: 81-71200) at 1:2000 in antibody diluent was used to detect bound AB197 and AB103. 100 μL of Anti-murine immunoglobulin antibody HRP conjugate (Dako, Cat No: P0260) at 1:2000 in antibody diluent was used to detect bound AB164. Wells with antibody diluent only were used to measure the background absorbance. After incubation at 25° C., in a humidified container, for 1 hour the plate was washed again as previously described. 100 μL TMB substrate solution (Zymed, Cat No: 00-2023) was added to each well and the colour allowed to develop for 4 min. 100 μL of 1M HCl was added to terminate the colour development reaction and absorbance was determined at 450 nm (ref. 620 nm)

B1: AB138 (MOG specific marmoset derived variable region-human constant region chimera) (antibody, human IgG1, kappa, V domains shown)
VH: QVQLVQSGAEVKKPGASVKVSCKASGYTFTSYAISWARQPPGQGLEWMGAFDPEYGSTTYAQKFQGRVTMTADTSTSTAYMELSSLRPEDTAVYYCARDVNFGNYFDYWGQGTLVTVSS
VL: ELVMTQSPATLSLSPGERATVSCRAGQSVSYYLAWYQQKPGQAPRLLIYGASTRATGIPARFSGSRSGTDFTLTISSLEPEDFAVYYCQQYSSWPPTFGQGTKLEIKR
notes: Chimeric antibody with the variable regions of the marmoset anti-MOG antibody (M26) and human IgG1/kappa constant regions
binding result [1]: binds

B3: AB103 (anti-TNFα murine variable region-human constant region chimera) (antibody, V domains shown)
VH: QVQLQQSGAELVRPGTSVKVSCKASGYAFTNYLIEWVKQRPGQGLEWIGVINPGSGSTNYNEKFKDKATLTADKSSSTAYMQLSSLTSDDSAVYFCVRDYGYDGMDYWGQGTSVTVSS
VL: DIVLTQSPASLAVSLGQRATISCRASKSVSTSGYSYMHWYQQKPGQPPKLLIYLASNLESGVPARFSGSGSGTDFTLNIHPVEEEDAATYYCQHSRELPLTFGAGTKLELKR
EC-50 (µg/ml), neutralisation of TNF-α-induced L-929 cell cytotoxicity [2]: 0.1 µg/mL
EC50 [3]: 0.19 µg/mL

Continued, in another order:

EC50 [3]: 0.45 µg/mL
B2: murine monoclonal antibody AB164 (antibody, V domains shown)
VH: QVQLQQSGAELVRPGTSVKVSCKASGYAFTNYLIEWVKQRPGQGLEWIGVINPGSGSTNYNEKFKDKATLTADKSSSTAYMQLSSLTSDDSAVYFCVRDYGYDGMDYWGQGTSVTVS
VL: B3 VL
notes: Fully murine antibody from a hybridoma
EC-50 (µg/ml), neutralisation of TNF-α-induced L-929 cell cytotoxicity [2]: 0.1 µg/mL

EC50 [3]: 0.68 µg/mL
B4: engineered monoclonal antibody AB197 (antibody, V domains shown)
VH: QVQLVQSGAELKKPGASVKVSCKASGYAFTNYLIEWVRQPPGQGLEWIGVINPGSGSTNYNEKFKDKATLTADKSSSTAYMELSSLRPEDTAVYYCARDYGYDGMDYWGQGTLVTVS
VL: ELVMTQSPATLSLSPGERATVSCRASKSVSTSGYSYMHWYQQKPGQAPRLLIYLASNLESGVPARFSGSRSGTDFTLTISSLEPEDFAVYYCQHSRELPLTFGQGTKLEIKR
EC-50 (µg/ml), neutralisation of TNF-α-induced L-929 cell cytotoxicity [2]: 0.41 µg/mL
